Measurements published in patent US20220144922A1 (Adimab, published 2022).
Numbering of substitutions follows the chain as printed.

B1: ADI-15642 (antibody, V domains shown)
VH: EVQLVESGGGLIQPGGSLRLSCAASGFTVSSKYMSWVRQAPGKGLEWVSIIYSGGSTYHADSVKGRFTISRDNSKNTLYLQMNSLRAEDTAVYYCARDDYDFWSGNGPPEMAVWGQGTTVTVSS
VL: DIRMTQSPSSLSASVGDRVTITCRASQGISNYLAWYQQKPGKVPKLLIYAASTLQSGVPSRFSGSGSETDFTLTISSLQPEDVATYYCQKYNSVPLTFGQGTKVEIK
notes: IgG; also called Antibody Number 206
B2: ADI-15650 (antibody, V domains shown)
VH: B1 VH with H59Y
VL: B1 VL with I2M, M4L, K39R, K45Q, A50T, N92D
notes: IgG; also called Antibody Number 214
B3: ADI-15583 (antibody, V domains shown)
VH: QVQLVQSGAEVKKPGESLKISCKTSGYKFTNYWIGWVRQMPGKGLEWMGIIYPGDSDARYSPSFQGQVTFSADKSISTAYLQWSSLKASDTAMYYCARQDNSGWADFFPFDYWGQGTLVTVSS
VL: ETTLTQSPGTLSLSPGERATLSCRASHSFSSSYLAWYQQKPGQAPRLLIYAASNRATGIPDRFSGSGSGTDFTLTISRLEPEDFAVYFCQQYDSSPWTFGQGTKVEIK
notes: IgG
B4: ADI-15643 (antibody, V domains shown)
VH: B3 VH with K28R, Q82H, N101D
VL: B3 VL with T2I, T3V, S32T, V105L
notes: IgG
B5: ADI-15563 (antibody, V domains shown)
VH: EVQLVESGGGLVQPGRSLRLSCAASGFTFDDYAMHWVRQAPGKGLEWVSGISWNSGIVKYADSVKGRFTISRDNAKNSLYLQMNSLRTEDTALYYCVKDGYTSSWHSDYHYGLDVWGQGTTVTVSS
VL: DIVMTQSPATLSLSPGDRATLSCRASQNVISNLAWYQQKPGQAPRLLIYTVSTRATGIPARFSGSGSGTDFTLTISSLQSEDFAVYYCQQYNNWPLTFGGGTKVEIK
notes: IgG
B6: ADI-15649 (antibody, V domains shown)
VH: EVQLVESGGGLVKPGGSLRLSCAAPGFTIRSYTMYWVRQAPGKGLEWVASISSSSSYIHYGDSVKGRFTIARDNAKNSLYLQMNSLRAEDTAVYYCVRDHCTGGSCYLNGMDVWGQGTTVTVSS
VL: QPVLTQPPSVSGAPGQRVTISCTGTSSNIGAGYDVHWYQQLPGTAPKLLIYGNNNRPSGVPDRFSGSKSGTSASLAITGLQAEDEADYYCQSYDSSLSGSVFGGGTKLTVL
notes: IgG
B7: ADI-15564 (antibody, V domains shown)
VH: QVQLVQSGAEVKKPGSSVKVSCKASGDTFNSYSISWVRQAPGQGLEWMGGILPMFGSSDYAQKFQGRLTITADESTRTAYMELNSLTSEDTAIYYCARDNYYVWTGRYPEFDFWGQGTLVTVSS
VL: EIVLTQSPGTLSLSPGDEATLSCRASQSVTSNYLAWYQQRPGQAPRLLISGASRRATAVPDRFSGSGSGTDFTLTISRLEPEDFAVYYCQQYGSTPITFGQGTRLEIK
notes: IgG
B8: ADI-15655 (antibody, V domains shown)
VH: EVQLVESGGGVVQPGRSLRLSCAASGFTFSSYAMHWVRQAPGKGLEWVAVISYDEGNEYYADSVKGRFTISRANSKNTIYLQMNSLRAEDTAVYYCARDYIHGDYGLDVWGLGTTVTVSS
VL: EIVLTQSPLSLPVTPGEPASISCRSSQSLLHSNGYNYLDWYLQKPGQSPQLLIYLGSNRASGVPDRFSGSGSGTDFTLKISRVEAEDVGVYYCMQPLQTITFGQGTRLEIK
notes: IgG
B9: ADI-15656 (antibody, V domains shown)
VH: QVQLVQSGAEVKKPGASVKVSCKASGYTFTDYYMHWVRQAPGQGLEWVGWINPNSGSTNYAQKFQGRVTVTRDTSISTAYMDLSRLRSDDTAVYYCASRSWDHDAFDIWGQGTMVTVSS
VL: QSVLTQPPSVSGAPGQRVTISCTGSSSNIGAGYDVHWYQQLPGRAPKLLIFGNSNRPSGVPDRFSGSKSGTSASLAITGLQPEDEADYYCHCYDSRLSVVFGGGTKLTVL
notes: IgG; also called Antibody Number 220
B10: ADI-15565 (antibody, V domains shown)
VH: QVQLVQSGAEVKKPGASVKVSCKASGYTFTNDINWVRQATGQGLEWMGWMNPNNGHTGYAQSFEGRVSMTRNSAINTAYLELSSLRFDDTAIYYCVYNFWSDSSVSWGQGTLVTVSS
VL: QSVVTQPPSVSGAPGQSVAISCTGSSSNIGPGYDVHWYQQLPGAAPKLLIYGDSNRPSGVPDRFSTSKSGTSVSLAITGLQAEDEADYYCQSYDSSLRGYVFGTGTKLTVL
notes: IgG
B11: ADI-15566 (antibody, V domains shown)
VH: QVQLVQSGAEVKKPGASVKVSCKASGFTFTNYGISWVRQAPGRGLEWMGWISAYNGNTEYAQKLQDRLTMTTDTSTNTAYMELRSLRSDDTALYYCARESGVAAAATLLYWGQGTLVTVSS
VL: ETTLTQSPLSLPVTLGQPASISCRSSQSLVYSDGNTYLSWFQQRPGQSPRRLIYKVSNRDSGVPDRFSGSGSGADFTLKISRVEAEDVGVYYCMQGIYWPRTFGQGTKVDIK
notes: IgG
B12: ADI-15568 (antibody, V domains shown)
VH: QVQLVESGAEVQKPGASVKISCKASGYKFISYSIHWVRQAPGQGLEWMGVINPGGGLTNYAQKFQDRLTMTRDTSTATVTMELRSLRSDDRAVYFCGREDSYCSGDSCFNSGSGRWVDSWGQGTLVTVSS
VL: DIQVTQSPSSLSASVGDRVTITCRASQSVITYLNWYQQKPGKAPQLLVYAASILQSGVPSSFSGSGSGTDFTLTISSLQPEDFATYYCQQTYSTPHTFGQGTKVDIK
notes: IgG
B13: ADI-15569 (antibody, V domains shown)
VH: EVQLVESGAEVKKPGASVKVSCKASGYTFANYGITWVRQAPGQGLEYMGWISAYNGNTNYAQKFQGRVTMTTDTSTSTAYMELRSLRSDDTAIYYCARDPGVTAAVLLDYWGQGALVTVSS
VL: DIVLTQSPLSLPVTLGQPASISCRSSQSLVFSDGNTYLSWFQQRPGQSPRRLLYKVSNRDSGVPDRFSGSGSGTDFTLTISRVEAEDVGVYYCLQGTPPYTFGQGTKVDIK
notes: IgG
B14: ADI-15571 (antibody, V domains shown)
VH: QVQLVQSGAEVKKPGASVKVSCKASGYSFTDYYIHWVRQAPGQGLEWIGWINPNSGGTTFAQNFQGRVTMTRDTSISTAFLELSRLKSDDTAVYYCARDVLWLNGFWGLGTLVTVSS
VL: QSVVTQPPSVSAAPGQKVTISCSGSSSNIGNNYVSWYQQFRGTAPKVLIYENNKRTSGIPDRFSGSKSGTSATLGITGLQTGDEADYYCGTWDSSLSTGPYVVFGGGTKLTVL
notes: IgG
B15: ADI-15575 (antibody, V domains shown)
VH: QVQLVQSGAEVKKPGASLMVSCSASGYIFNSDINWVRQAPGQGLEWMGWMNPKNGHTGYAQEFEGRVSMTRNSSKTIAYLQLSSLTYEDTAVYYCVYDFWSDDSVKWGRGTLVTVSS
VL: B10 VL with T23S, A44S, S54N, D62E, V73A, Y93F, L108V
notes: IgG
B16: ADI-15586 (antibody, V domains shown)
VH: EVQLVESGGGVVQPGKSLRLSCAASGFIFSGYGMHWVRQAPGKGLEWVAFIWFDGSSTYYADSVKGRFTISKDDSKQTVYLQMNRLRAEDTAVYYCARDPLFLYNYNDEPFDYWGQGTLVTVSS
VL: SYELTQPPSASGSPGQSVTISCSGSSSNIGGNFVYWYQQLPGTAPKVLIYRNNQRPSGVPDRFSGSKSGTSASLAISGLRSDDEADYYCSVWDDSLNGRLFGGGTKLTVL
notes: IgG; also called Antibody Number 153
B17: ADI-15587 (antibody, V domains shown)
VH: EVQLVESGGGVVRPGGSLRLSCAASGFKFDDYGMSWVRQAPGKGLEWVSAIIWNSGSTGYADSVKGRFIISRDNAKNSLYLQMNSLRAEDTALYYCARVGGITKWWYYGMDLWGQGTTVTVSS
VL: ETTLTQSPSFLSASVGDRVTITCRASQGLSNYLAWYQQKPGRAPKLLIYAASTLQSGVPSRFRGSGSGTEFTLTISSLQPEDLATYYCQHLNSYPLTFGGGTKVEIK
notes: IgG
B18: ADI-15591 (antibody, V domains shown)
VH: EVQLLESGGGLVKPGGSLRLSCAASGFTFSSYGMHWVRQAPGKGLEWVSSITAGSSYMDYADSVKGRFTVSRDNGKNSLYLQMNSLRAEDTAVYFCAREDYDSRVYYLKWFDPWGQGTLVTVSS
VL: B6 VL with P2S, T25S, A31T, T44S, N54S, L97R, S100Y, G104T
notes: IgG
B19: ADI-15592 (antibody, V domains shown)
VH: EVQLVESGGALVKPGGSLRLSCVGTGLTFTTAYMSWARQAPGKGLEWVGRIKSKSDGGTTEYPTPVKGRFTISRDESKNTLYLQMNSLKIEDTAVYYCTTDRGITARPIFDSWGQGTLVTVSS
VL: QSVLTQPPSVSGALGRRVTISCTGSSSNIGAGYDVHWYRQLPGTAPKLLIYGNTKRPSGVPDRFSGSKYATSASLAITGLQAEDDADYYCQSYDGGLSGYVFGTGTQLTVL
notes: IgG; also called Antibody Number 159
B20: ADI-15594 (antibody, V domains shown)
VH: EVQLVESGGHLVQPGGSLRLSCAASGFTFSSYSMNWVRQAPGKGLEWISYISSSSSTMYYADSVKGRFTMSRDNAKNSLYLQMNSLRDEDTALYYCARDFPPINLAATTRNYYYYVMDVWGQGTTVTVSS
VL: DIQLTQSPSSLSASVGDRVTITCRASQSISSYLNWYQQKPGKAPNLLIYATSNLKSGVPSRFSGSGSGTDFTLTISSLQPEDFATYYCQQSYSTSYTFGQGTKVDIK
notes: IgG

Biological target: RSV F protein of subtype A strain A2, on virus (respiratory syncytial virus subtype A …, UniProt P03420 26-574)
Test: cell-based or functional assay

Row | Binder | Neut IC50 (ug/ml) subtype A [µg/mL]
1 | B1 | 0.499
2 | B2 | 8.3
3 | B3 | 0.443
4 | B4 | 0.039
5 | B5 | 0.014
6 | B6 | > 10
7 | B7 | 0.011
8 | B8 | > 10
9 | B9 | > 10
10 | B10 | 21.3
11 | B11 | 0.01
12 | B12 | 0.016
13 | B13 | 0.006
14 | B14 | 0.541
15 | B15 | > 10
16 | B16 | > 10
17 | B17 | > 10
18 | B18 | 0.086
19 | B19 | 12.3
20 | B20 | 3.25

Biological target: RSV F protein of subtype B strain 18537, on virus (respiratory syncytial virus subtype B …, UniProt P13843 26-574)
Test: cell-based or functional assay

Row | Binder | Neut IC50 (ug/ml) subtype B [µg/mL]
21 | B1 | 0.005
22 | B2 | 0.016
23 | B3 | 0.377
24 | B4 | 0.115
25 | B5 | 0.047
26 | B6 | 2.19
27 | B7 | 0.016
28 | B8 | > 10
29 | B9 | 0.021
30 | B10 | 6.25
31 | B11 | 0.043
32 | B12 | 0.033
33 | B13 | 0.035
34 | B14 | 0.43
35 | B15 | 1.47
36 | B16 | 1.02
37 | B17 | 0.13
38 | B18 | 0.219
39 | B19 | 20.9
40 | B20 | 3.28

Biological target: T1, prefusion-stabilized RSV F ectodomain (DS-Cav1), subtype B (respiratory syncytial virus subtype B)
T1 construct: extracellular domain; also called Prefusion subtype B
Test: BLI, IgG on sensor
Description: IgG binding to DS-Cav1 and FA FP was determined by BLI measurements using a FortéBio Octet HTX instrument (Pall Life Sciences). […] Data was analyzed using the ForteBio Data Analysis Software 7. The data was fit to a 1:1 binding model to calculate an association and dissociation rate, and KD was calculated using the ratio kd/kₐ.

Row | Binder | Kd [nM]
41 | B1 | 2.81
42 | B2 | 3.52
43 | B3 | 0.351
44 | B4 | 0.162
45 | B5 | 2.2
46 | B6 | 0.329
47 | B7 | 0.64
48 | B8 | 8.58
49 | B9 | 6.13
50 | B10 | 6.76
51 | B11 | 0.264
52 | B12 | 0.699
53 | B13 | 0.25
54 | B14 | 25.7
55 | B15 | 4.16
56 | B16 | 5.78
57 | B17 | 2.42
58 | B18 | 0.304
59 | B19 | 48.2
60 | B20 | 0.549
